Test results: the DeepSol protein solubility set

experiment: soluble on expression in E. coli; label from the status in PepcDB or PDB records

Sequence | soluble on expression in E. coli
MAKHHPLTDWLPTSKKEMEAKGWDEADVILFSGDAYVDHPSFGAAVVGRILEAEGLRVAIVPQPNWRDDLRDFRKLGRPRLFFGVSAGAMDSMVNKYTANRRLRSEDAYTPDRRSDMRPDYPTIVYTRILKELFPDVPVIVGGIEASLRRLTHYDYWQDKLLPGILYQSGADLLIYGMGELPLHEIAQRLIAGEPFDSLKSIRQIAYLVPKGKTPVPCENDRHLFSHEECLSDKRKQAQNFREIEIQSNRYEADRILQAVGDSTIVVNPPFPPMSTAQIDQSFDLPYTRLPHPRYKGKIISAYEMIKHSVNVHRGCFGGCAFCTISAHQGKFIASRSEASVLREVKEITEMEDFKGYLSDVGGPSANMYKMQGYDLSICKRCKKPSCIHPNVCPNLNADHRPLLDLLRRIDKNPKIKKSFIGSGVRMDLLLHNYKDKVLKKAADEYTEDLIVKHVSGRLKVAPEHSSDRVLNLMRKPPFRQFAEFTKRFQRINEAHGLRQQLIPYFISSHPGCTEEDMAELAILTKKLDFKLEQIQDFTPTPMTLATEMYYTGYHPYTLQPVYTAIKKEEKMRQHMFFFWYKREEADKIRRELHRIGRPDLIAKLFDRTTSSRNDRHTPPSTQPRKSKSKSRHS | not soluble
MAKIILRHLIEIPVRYQEEFEARGLEDCRLDHALYALPGPTIVDLRKTRAAQSPPVDSAAETPPREGKSHFQILLDVVQFLPEDIIIQTFEGWLLIKAQHGTRMDEHGFISRSFTRQYKLPDGVEIKDLSAVLCHDGILVVEVKDPVGTK | soluble
MAKILVFDEAARRALERGVNAVANAVKVTLGPRGRNVVLEKKFGSPTITKDGVTVAKEVELEDHLENIGAQLLKEVASKTNDVAGDGTTTATVLAQAIVREGLKNVAAGANPLALKRGIEKAVEAAVEKIKALAIPVEDRKAIEEVATISANDPEVGKLIADAMEKVGKEGIITVEESKSLETELKFVEGYQFDKGYISPYFVTNPETMEAVLEDAFILIVEKKVSNVRELLPILEQVAQTGKPLLIIAEDVEGEALATLVVNKLRGTLSVAAVKAPGFGDRRKEMLKDIAAVTGGTVISEELGFKLENATLSMLGRAERVRITKDETTIVGGKGKKEDIEARINGIKKELETTDSEYAREKLQERLAKLAGGVAVIRVGAATETELKEKKHRFEDALNATRAAVEEGIVPGGGVTLLRAISAVEELIKKLEGDEATGAKIVRRALEEPARQIAENAGYEGSVIVQQILAETKNPRYGFNAATGEFVDMVEAGIVDPAKVTRSALQNAASIGALILTTEAVVAEKPEKKESTPAFAGAGDMDF | soluble
MAKKMKLSDITNMFAGMDVEALEGVTIEGDIEIDLGGLGGGFDPMLAAALGQESAVLAQHFARIAGMFGYPVGIGAPAAPAISPALAAPKLKDLIPAKFDVANIAEWATQIQEVPIGNTSADGGSRGKRVLVGGEKALPFFPDAPMPNRNQVTIDVFDMRIGLAKAVKENYDEVMDSPGEWAKKNVEKFNADMITIHLISTDPLVKDTPPKEAAKTVEEVLQAVDVPIAIGGSGNPQKDPEVLARAAEVAEGERCLLASASLNLDYAAIAEAALKYDHDVLSWTQLDMNAQKELNRKLMKQCNVPRDRIIMDPTTAALGYGLDYAYTNMERIRLAALMGDDELTFPMSSGTTNAWGARESWMVGSPLKEDSDWGPREYRGPIWEIVTGLSLAIAGNDLFMMMHPTSVAVLKQITQTLFGTIDTEQVDIANWIGAEV | not soluble
MAKKTSSKGKLPPGPTPFPIIGNILQIDAKDISKSLTKFSECYGPVFTVYLGMKPTVVLHGYEAVKEALVDLGEEFAGRGSVPILEKVSKGLGIAFSNAKTWKEMRRFSLMTLRNFGMGKRSIEDRIQEEARCLVEELRKTNASPCDPTFILGCAPCNVICSVIFHNRFDYKDEEFLKLMESLHENVELLGTPWLQVYNNFPALLDYFPGIHKTLLKNADYIKNFIMEKVKEHQKLLDVNNPRDFIDCFLIKMEQENNLEFTLESLVIAVSDLFGAGTETTSTTLRYSLLLLLKHPEVAARVQEEIERVIGRHRSPCMQDRSRMPYTDAVIHEIQRFIDLLPTNLPHAVTRDVRFRNYFIPKGTDIITSLTSVLHDEKAFPNPKVFDPGHFLDESGNFKKSDYFMPFSAGKRMCVGEGLARMELFLFLTSILQNFKLQSLVEPKDLDITAVVNGFVSVPPSYQLCFIPIHHHH | soluble
MAKKVAAQIKLQLPAGKATPAPPVGPALGQHGVNIMEFCKRFNAETADKAGMILPVVITVYEDKSFTFIIKTPPASFLLKKAAGIEKGSSEPKRKIVGKVTRKQIEEIAKTKMPDLNANSLEAAMKIIEGTAKSMGIEVVD | soluble
MAKPPPGKSSGRGSINDDEGKIEVESGDIPHVTDTEIKDAAEKVRETAVSKGKSERDKAEGDYTIMNPDSMIRPDFASDEEIEEQAKWIPGRFEPYITPNPLDIETLVKRADTIATVFNCSGNNLTDSRLSGAYEIAMTRSDEWEGKAGENFEKYMASLPTIMGNHGKVANMLQIEAQKMIELYKNRRKGAKDIADQAVKAIEAIDDSKGEGLE | not soluble
MAKRLSKQQLAKAIANTLETPPQPKAGRRRNRRRQRSAVQQLQPTQAGISMAASAQGAMVRIRNPAVSSSRGGITVLTHSELSAEIGVTDSIVVSSELVMPYTVGTWLRGVAANWSKYSWLSVRYTYIPSCPSSTAGSIHMGFQYDMADTVPVSVNQLSNLRGYVSGQVWSGSAGLCFINGTRCSDTSTAISTTLDVSKLGKKWYPYKTSADYATAVGVDVNIATPLVPARLVIALLDGSSSTAVAAGRIYCTYTIQMIEPTASALNN | soluble
MAKSEEIIRERYKVMAPRIIKALNQRNFEAYFCETSEKAVECALSLIPQGASVAWGGSMTLEEIGLIQRLKEGNYQVIDRDTAKSQEERFSLMRQALLSDVYLASVNAMSEDGIMVNIDGRGNRISAIAFGPKTVILVVGMNKICRDLESARKRAHTYAAPNNALRLGLELPCTKTGCCFDCNKNNPSSICAQIVEMHSSIVPGRIKVILVGENLGL | soluble
MAKSYDYQSAFDIIGPVMMGPSSSHTAGAVKIGNSARAILGDIPKNIEIHYYESFAQTHQGHGTDVAIVGGAMGYSTFDNRIKSSLEIAADDGIKIDIIEEEGDSIGQHPNCAYIKSSRNDGRYIEIIGISIGGGTIKIKGIHINGLEVDLNHGLPILVVDGNMTKAQVNHFINDINDMKLDCKDEFIKIDEDKCLVVIPLNKAISESTLNTIKEKYSDVNVSYIN | not soluble
MAKVIRNRWVYRTDNKWTRYLPRRNDAVKEFDYDKNGASLKHYTEEISEEMRPKQASKLWMAWLYRDTSAEPKWTKKHVENLFGADFKVGRMEVFRNTELINTELWKIKHLIELRPVEFKNGVEPTEDDIFSTSLAPNGQCEVIQGGHVASENDLKLADGKQWTRKELGRDLNKKYHLYQSVYEQNVHTPNNITVVK | not soluble
MAKYFGTDGIRGEVANSTITVEFTQKLGNAVGSLINQKNYPKFVIVGQDTRSSGGFLKFALVSGLNAAGIDVLDLGVVPTPVVAFMTVKHRAAAGFVITASHNKFTDNGIKLFSSNGFKLDDALEEEVEDMIDGDFIYQPQFKFGSYKILANAIDEYIESIYSRFAKFVNYKGKVVVDCAHGAASHNFEALLDKFGINYVSIASNPDGLNINVGCGATCVSNIKKAVKEQKADLGISLDGDADRIIIVDENGQEIDGDGILNILAQYSDICGGTNGIVGTQMTNMSYENHYRANKIPFIRSKVGDRYVLEDLVKYGYKIGGESSGHVINLNFGTTGDGLFTAIQLLAIFSQADKPVSEFKLQGELMQQTLINVPLTKKVAREDLQKVASDVNDVEKRLGNRGRVLLRPSGTEPVLRVMVEADDKSLATNEAEYLVEKVKQKLV | soluble
MALAPHAVHRLYEYRKSISTKPFGARGKKLIRCPLCLLGEQFCTCSLRKQLTTQASFLLIMYNDEVLKPTNSGRLIADLIPDTHAFLWSRTDPAPELLALLSSDHYQPFLVFPAQYADQGQTVLSQVPMATLAKGKRPLLIMLDGSWREAIKMFRKSPYLQGLPILSFDPDTLATYALRKGSHDFQLGTAEVASLALAAMGEEANGKALTAWFDLFVESSLLGRNRRCREDILPISDFTNAFEVAYTAATP | not soluble
MALDITDESEIYNLDSLVSYSQGGCKAEHDWRIGTEHEKFPFYRGDFRPVPYEGSRGIRALLEGMQKALGWEPILDEGNIIGLVGSVGQGAISLEPGGQFELSGALLKTIGDTYCEVIEHLALLKKISEPLGIGFLGIGASPKWTLTETPRMPKSRYRIMANYMPKVGHSGLDMMYRTSTVQVNLDFSSETDMRRKMQVSMKLQSIATALFASSPFTEGRPNGFLSWRSEIWCDTDNQRTGVLPFIFSERFGFADYVEWALDVPMYFVVRDGRYYDCTHITFRQFMNGALRGQVANATPNMGDWINHLSTLFPEVRLKRFLEMRGADCGSLKRICALSAFWVGILYDSEALNEAEALTKDWCFEEVLDMRKRVPKEGLKTPFRQTIILEIARQAVAISHKGLKNRRQYASNGLDETSFLAPLEEVIAMGQTDADKFLSLYHSIWDKSVEPVFLECVY | not soluble
MALDKLLENEAQSEIERIRAEARGRAEKIVADARERAQTLLDSRQRLLENQRQAGLVRARSAADLELNAARLTASESGVTQVYQMVEDYLGNVTSAPEYGNILSRLIQEGLQAVPDAEAIEVNPAEMNVARHLVSGVEVRENPSIKGGVRVVARGGKSGVTNTLSGRLERVKADMAPQISRLLAE | soluble
MALIGRQTTIQMIDLEPELPTQKDYQSDILRELTQIRNENLEYNRLEVYVLELEQIMRIRMIVDLLDLGGRLNSETLLQMCYRLVNQETDLENLRNFRDSQFAQEEQRRDRLREIGQRIFNRFEQQQEEAAGNREGSEAGERPSKENIEFRIWRFLSVLQHQDGLERLDELEREIAVRREMNAADQFQEGQDFFARINPDIVAEGIPHHNNRDNIPIERQYRTEFIQLANDLQSPPDDVRLDVFRRLIDLGVQFQESRLEQDRQRIQEEPQRQREGEIMDQLNDSVKGDMRRLNPMAPGNASGNIQQEGAGIETDVDVDDELEDEYSGSDSSQDVEEVPEESSERYVADTGSATNQPSSSTSEPNAGNEEVEDPSQRTRKRGNGSELSDAKRTN | soluble
MALKVIKISRVSPATASVDPLIVPLSFFDLQWLKLNPTEQVFFYKLTESSSSRDVFYSSILPKLERSLSLILTHFRLFTGHLKWDSQDPKPHLVVLSGDTLSLTVAETDADFSRISGRGLRPELELRPLIPELPIYSDSGAVVSLQVTLFPKQGFCIGTTAHHVVLDGKTAEKFNKAWAHTCKHGTIPKILPTVLDRSVVNVPAGLEQKMLELLPYLTEDDKENGRTLKLPPVKEINAKDNVLRITIEISPENIEKLKERAKKESTRAELHLSTFVVTFAHVWTCMVKARSGDPNRPVRFMYAADFRNRLEPPVPVTYFGTCVLAMDFYKYKAKEFMGEDGFVNTVEILSDSVKRLASQGVESTWKVYEEGTKTMKWGTQLLVVNGSNQIGMYETDFGWGRPIHTETMSIYKNDEFSMSKRRDGIGGVEIGISLKKLEMDTFLSLFYKWIGN | soluble
MALLCYNRGCGQRFDPETNSDDACTYHPGVPVFHDALKGWSCCKRRTTDFSDFLSIVGCTKGRHNSEKPPEPVKPEVKTTEKKELCELKPKFQEHIIQAPKPVEAIKRPSPDEPMTNLELKISASLKQALDKLKLSSGNEENKKEEDNDEIKIGTSCKNGGCSKTYQGLESLEEVCVYHSGVPIFHEGMKYWSCCRRKTSDFNTFLAQEGCTKGKHMWTKKDAGKKVVPCRHDLHQTGGEVTISVYAKNSLPELSRVEANSTLLNVIIVFEGEKEFDQNVKLWGVIDVKRSYVTMTATKIEITMRKAEPMQWASLELPAAKKQEKQKDDTTD | soluble
MALVQALVPREREPKLSILQMDRGDPQHSSHWCPEREKVKLLTLKPRETSKNILINFYRAFNLDKDVFIHQANHPLTVPSSVVMGDNGHTLAEDDKRPCFRVLPCYLERVSSGISISWISAPLPVGAMKHQLLCDLMDLITLSFWLAGQCMSLKATNMQHCKCSIATSDWAIELDRTDYKTLPSEYSILALLQVFAGKNCMDRVLLHVDVNYLKSLP | soluble
